In paper doi:10.1101/2022.01.19.476998 (bioRxiv, 2022):

Biological target: SARS-CoV-2 Spike S1 (Omicron) (SARS-CoV-2 Omicron B.1.1.529 (BA.1), strain)
Experiment: SPR

B1: Cilgavimab (antibody, V domains shown)
VH: EVQLVESGGGLVKPGGSLRLSCAASGFTFRDVWMSWVRQAPGKGLEWVGRIKSKIDGGTTDYAAPVKGRFTISRDDSKNTLYLQMNSLKTEDTAVYYCTTAGSYYYDTVGPGLPEGKFDYWGQGTLVTVSS
VL: not shown
- binding result: binds
